Legend:
mouse CNTN4-rabbit Fc = target: T1, mouse CNTN4-rabbit Fc (mouse; rabbit, UniProt Q69Z26 19-1000, limits assumed); experiment: ELISA, plate coated with antigen-rabbit Fc, anti-human IgG Fc-HRP
T1 construct: not shown: rabbit Fc
T1 sequence (looked up): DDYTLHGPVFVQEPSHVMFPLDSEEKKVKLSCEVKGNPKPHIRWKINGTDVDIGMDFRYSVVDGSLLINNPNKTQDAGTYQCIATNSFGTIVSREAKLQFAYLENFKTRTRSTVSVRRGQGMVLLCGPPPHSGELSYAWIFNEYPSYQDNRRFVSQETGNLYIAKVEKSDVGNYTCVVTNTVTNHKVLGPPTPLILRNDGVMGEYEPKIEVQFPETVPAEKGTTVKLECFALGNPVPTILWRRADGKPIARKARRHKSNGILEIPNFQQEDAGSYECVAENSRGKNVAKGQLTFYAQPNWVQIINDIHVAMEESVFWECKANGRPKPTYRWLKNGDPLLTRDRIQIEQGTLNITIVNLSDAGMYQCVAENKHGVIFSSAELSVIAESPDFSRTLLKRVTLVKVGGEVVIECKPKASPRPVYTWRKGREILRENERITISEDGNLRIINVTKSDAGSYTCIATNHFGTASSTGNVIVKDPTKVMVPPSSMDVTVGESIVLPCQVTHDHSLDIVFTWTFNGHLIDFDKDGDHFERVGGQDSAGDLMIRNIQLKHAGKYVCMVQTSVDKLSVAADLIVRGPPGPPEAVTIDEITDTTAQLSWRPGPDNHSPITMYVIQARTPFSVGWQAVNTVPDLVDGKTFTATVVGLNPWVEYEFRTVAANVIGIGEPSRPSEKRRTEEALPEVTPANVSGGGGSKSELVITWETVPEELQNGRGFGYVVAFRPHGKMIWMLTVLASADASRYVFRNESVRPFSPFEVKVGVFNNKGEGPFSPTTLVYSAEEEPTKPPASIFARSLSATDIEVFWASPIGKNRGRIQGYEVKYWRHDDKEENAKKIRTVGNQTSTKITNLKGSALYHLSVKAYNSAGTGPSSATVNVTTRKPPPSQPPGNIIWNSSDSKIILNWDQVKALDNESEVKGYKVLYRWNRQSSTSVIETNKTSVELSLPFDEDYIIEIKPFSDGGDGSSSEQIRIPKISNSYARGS
Protocol: (§1) An ELISA tests were performed on a total of 25 scFv-hCks and a total of 27 IgGs for which the expression was confirmed in Example 1.2. An ELISA plate was coated with 200 ng of antigens (human CNTN4-rabbit Fc or mouse CNTN4-rabbit Fc). 200 ng of a negative control (human antigen-rabbit Fc) for a tagging protein was used. For antibody binding, anti-CNTN4 scFv-hCk was serially diluted from a maximum of 1 μM to 0.001 nM by 1/10×each, and anti-CNTN4 IgG was serially diluted from a maximum of 10 nM to 0.00001 nM by 1/10×each, thereby binding to the antigen. Anti-human kappa-HRP or anti-human IgG Fc-HRP was used as the secondary antibody for antibody detection. Color was developed using ABTS, which is a color developing reagent, and the absorbance at 405 nm was measured.

human CNTN4-rabbit Fc = target: T2, human CNTN4-rabbit Fc (human; rabbit, UniProt Q8IWV2 19-1000, limits assumed); experiment: as above
T2 construct: not shown: rabbit Fc
T2 sequence (looked up): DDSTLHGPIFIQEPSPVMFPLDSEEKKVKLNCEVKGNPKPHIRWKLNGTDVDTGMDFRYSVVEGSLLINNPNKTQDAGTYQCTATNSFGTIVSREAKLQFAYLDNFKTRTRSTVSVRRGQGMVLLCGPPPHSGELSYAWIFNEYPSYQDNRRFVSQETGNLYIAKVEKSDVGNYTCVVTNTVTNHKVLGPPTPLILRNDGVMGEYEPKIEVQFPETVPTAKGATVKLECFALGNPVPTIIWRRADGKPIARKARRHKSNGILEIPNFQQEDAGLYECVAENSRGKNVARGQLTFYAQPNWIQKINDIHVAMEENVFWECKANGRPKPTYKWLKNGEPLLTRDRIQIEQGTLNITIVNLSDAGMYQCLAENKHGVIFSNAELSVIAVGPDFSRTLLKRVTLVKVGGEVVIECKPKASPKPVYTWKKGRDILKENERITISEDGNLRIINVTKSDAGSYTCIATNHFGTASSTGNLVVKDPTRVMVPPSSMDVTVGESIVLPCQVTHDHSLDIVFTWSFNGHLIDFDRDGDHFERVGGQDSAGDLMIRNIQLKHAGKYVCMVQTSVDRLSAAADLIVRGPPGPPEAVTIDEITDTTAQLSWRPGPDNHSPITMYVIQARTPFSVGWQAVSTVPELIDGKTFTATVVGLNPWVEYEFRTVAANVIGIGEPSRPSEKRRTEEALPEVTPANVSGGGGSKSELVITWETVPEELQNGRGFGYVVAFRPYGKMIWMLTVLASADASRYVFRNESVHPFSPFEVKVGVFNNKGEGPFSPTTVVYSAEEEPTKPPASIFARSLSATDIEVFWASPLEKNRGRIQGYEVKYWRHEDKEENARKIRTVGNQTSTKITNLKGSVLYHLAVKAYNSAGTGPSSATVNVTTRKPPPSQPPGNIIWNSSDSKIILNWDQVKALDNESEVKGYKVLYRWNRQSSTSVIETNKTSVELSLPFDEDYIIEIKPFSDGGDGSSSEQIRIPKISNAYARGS
Protocol: as §1

[1] = target: T3, human CNTN4 antigen expressed on the cell membrane of 293FT cells (human, UniProt Q8IWV2 19-1000); experiment: FACS, 293FT cells transfected with human CNTN4, 40 ug/mL, anti-hFc-PE
T3 construct: whole, on cells; also called Human CNTN4 transfected cell
T3 sequence (looked up): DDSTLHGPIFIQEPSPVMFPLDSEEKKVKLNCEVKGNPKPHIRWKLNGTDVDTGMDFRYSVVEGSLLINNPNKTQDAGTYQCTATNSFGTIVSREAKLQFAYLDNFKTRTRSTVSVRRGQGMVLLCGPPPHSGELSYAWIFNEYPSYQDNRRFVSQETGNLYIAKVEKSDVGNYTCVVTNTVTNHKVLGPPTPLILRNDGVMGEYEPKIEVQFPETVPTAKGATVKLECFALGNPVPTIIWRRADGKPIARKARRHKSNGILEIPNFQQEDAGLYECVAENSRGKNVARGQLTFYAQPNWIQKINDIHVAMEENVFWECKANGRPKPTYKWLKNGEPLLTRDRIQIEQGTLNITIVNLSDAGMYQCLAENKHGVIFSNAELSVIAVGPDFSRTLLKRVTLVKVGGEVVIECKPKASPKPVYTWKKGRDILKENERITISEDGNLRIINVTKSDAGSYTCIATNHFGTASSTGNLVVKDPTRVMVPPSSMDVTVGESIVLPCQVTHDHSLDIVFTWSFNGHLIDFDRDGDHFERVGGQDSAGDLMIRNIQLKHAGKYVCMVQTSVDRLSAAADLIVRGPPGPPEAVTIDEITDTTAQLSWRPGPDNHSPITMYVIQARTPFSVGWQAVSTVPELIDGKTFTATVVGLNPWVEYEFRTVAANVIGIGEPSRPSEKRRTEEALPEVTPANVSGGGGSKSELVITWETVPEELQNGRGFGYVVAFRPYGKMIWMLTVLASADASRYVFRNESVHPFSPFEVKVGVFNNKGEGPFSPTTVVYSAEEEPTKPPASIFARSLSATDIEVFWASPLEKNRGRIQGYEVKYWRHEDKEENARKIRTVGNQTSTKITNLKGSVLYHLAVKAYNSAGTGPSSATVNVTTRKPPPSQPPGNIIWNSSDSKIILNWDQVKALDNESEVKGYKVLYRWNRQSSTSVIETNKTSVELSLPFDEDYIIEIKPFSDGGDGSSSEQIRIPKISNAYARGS

B1: anti-CNTN4 IgG A13SF2 (antibody, V domains shown)
VH: AVTLDESGGGLQTPGGALSLICKASGFTFSSYGMAWVRQAPGKGLEWVAGITSSGSSAGYGPAVKGRATISRDNGQSTVRLQLNNLRAEDTATYYCAKDGYIYSGADSDSIDAWGHGTEVIVSS
VL: ALTQPSSVSANLGGTVKITCSGGGGSYGWYRQKSPGSAPVTLIYNNNNRPSDIPSRFSGSTSGSTGTLTITGVQADDEAVYFCGGYDSSAGYAALFGAGTTLTVL
notes: human IgG4 (S228P)
- EC50 (mouse CNTN4-rabbit Fc): 0.01 nM
- EC50 (human CNTN4-rabbit Fc): 0.01 nM
- Shift % [1]: 83.5%

B2: anti-CNTN4 IgG A13SF7 (antibody, V domains shown)
VH: AVTLDESGGGLHTPGGALSLVCKASGFTFSSYGMAWVRQAPGKGLEWVAGITSSGSSAGYGPAVKGRATISRDNGQSTVRLQLNNLRAEDTATYYCAKDGYIYSGADSDSIDAWGHGTEVIVSS
VL: ALTQPSSVSANLGGTVEITCSGGSGSYGWYQQKSPGSAPVTLIYDNTNRPSNIPSRFSGSTSGSTSTLTITGVQADDEAVYFCGSADTNAAYAAIFGAGTTLTVL
notes: human IgG4 (S228P)
- EC50 (mouse CNTN4-rabbit Fc): 0.01 nM
- EC50 (human CNTN4-rabbit Fc): 0.01 nM
- Shift % [1]: 83.2%

B3: anti-CNTN4 IgG A13SF8 (antibody, V domains shown)
VH: AVTLDESGGGLHTPGGALSLVCKASGFTFSSYGMAWVRQAPGKGLEWVAGITSSGSSAGYGPAVKGRATISRDNGQSTVRLQLNNLRAEDTATYYCAKDGYIYSGADSDSIDAWGHGTEVIVSS
VL: ALTQPSSVSANPGGTVKITCSGSGNYGWYQQKSPGSALVTVIYYNDKRPSDIPSRFSGSTSGSTGTLTITGVQVEDEAVYYCGGYDGYSFASIFGAGTTLTVL
notes: human IgG4 (S228P)
- EC50 (mouse CNTN4-rabbit Fc): 0.01 nM
- EC50 (human CNTN4-rabbit Fc): 0.01 nM
- Shift % [1]: 90.4%

B4: anti-CNTN4 IgG A13SF19 (antibody, V domains shown)
VH: AVTLDESGGGLHTPGGALSLVCKASGFTFSSYGMAWVRQASGKGLEWVAGITSSGSSAGYGPAVKGRATISRDNGQSTVRLQLNNLRAEDTATYYCAKDGYIYSGADSDSIDAWGHGTEVIVSS
VL: ALTQPSSVSANLGGTVEITCSGSSSGNYGWYQQKSPGSAPVTVIYYNDERPSDIPSRFSGSKSGSTGTLTITGVQAEDEAVYYCGGYEGSTYVGIFGAGTTLTVL
notes: human IgG4 (S228P)
- EC50 (mouse CNTN4-rabbit Fc): 0.01 nM
- EC50 (human CNTN4-rabbit Fc): 0.01 nM
- Shift % [1]: 79.6%

B5: anti-CNTN4 IgG A13SF20 (antibody, V domains shown)
VH: AVTLDESGGGLHTPGGALSLVCKASGFTFSSYGMAWVRQAPGKGLEWVAGITSSGSSAGYGPAVKGRATISRDNGQSTVRLQLNNLRAEDTATYYCAKDGYIYSGADSDSIDAWGHGTEVIVSS
VL: ALTQPSSVSANLGGTVEITCSGGSGSYGWYQQKAPGSAPVTLIYNSDKRPSDIPSRFSGSKSGSTGTLTITGVQAEDEAVYFCGGYDSSAIFGAGTTLTVL
notes: human IgG4 (S228P)
- EC50 (mouse CNTN4-rabbit Fc): 0.01 nM
- EC50 (human CNTN4-rabbit Fc): 0.01 nM
- Shift % [1]: 82.2%

B6: anti-CNTN4 IgG A35SF3 (antibody, V domains shown)
VH: AVTLDESGGGLQTPGGGLSLVCKASGFTFSSYGMAWVRQAPGKGLEWVAGITSSGSSAGYGPAVKGRATISRDNGQSTVRLQLNNLRAEDTATYYCAKDGYIYSGADSDSIDAWGHGTEVIVSS
VL: ALTQPSSVSANLGGTVEITCSGSSGSYGWYQQKAPGSAPVTVIYDNTNRPSDIPSRFSGSKSGSTGTLTITGVQAEDEAVYFCGGYDSSTIFGAGTTLTVL
notes: human IgG4 (S228P)
- EC50 (mouse CNTN4-rabbit Fc): 0.01 nM
- EC50 (human CNTN4-rabbit Fc): 0.01 nM
- Shift % [1]: 81.9%

Reference: patent US20240182563A1 (GENOME, published 2024)
